Test results reported in patent publication US20260078341A1 (published 2026).
Read-outs that look alike come from different tables or passages of the source.

What was measured:
[1] = target: T1, EGFR on cells (tumor lines, primary cell lines, K562 cells electroporated with EGFR mRNA, A431) (UniProt P00533 25-1210); test: not stated; affinity of the scFv
[2] = target: T1, EGFR on cells (tumor lines, primary …); test: not stated; affinity of the scFv; remark: listed apart in the source

Binder | Kd [1] [nM] | Kd [2] [nM]
P2-4BBZ CAR (other) DYKDDDDKEVQLVQSGAEVKKPGSSVKVSCKASGGTFSSYAISWVRQAPGQGLEWMGGIIPIFGTANYAQKFQGRVTITADESTSTAYMELSSLRSEDTAVYYCAREEGPYCSSTSCYAAFDIWGQGTLVTVSSGGGGSGGGGSGGGGSQSVLTQDPAASVALGQTVKITCQGDSLRSYFASWYQQKPGQAPTLVMYARNDRPAGVPDRFSGSKSGTSASLAISGLQSEDEADYYCAAWDDSLNGYLFGAGTKLTVLTTTPAPRPPTPAPTIASQPLSLRPEACRPAAGGAVHTRGLDFACDIYIWAPLAGTCGVLLLSLVITLYCKRGRKKLLYIFKQPFMRPVQTTQEEDGCSCRFPEEEEGGCELRVKFSRSADAPAYKQGQNQLYNELNLGRREEYDVLDKRRGRDPEMGGKPRRKNPQEGLYNELQKDKMAEAYSEIGMKGERRRGKGHDGLYQGLSTATKDTYDALHMQALPPR | 15.4 | 15.4
C10-BBZ CAR (other) DYKDDDDKEVQLVQSGAEVKKPGSSVKVSCKASGGTFSSYAISWVRQAPGQGLEWMGGIIPIFGTANYAQKFQGRVTITADESTSTAYMELSSLRSEDTAVYYCAREEGPYCSSTSCYGAFDIWGQGTLVTVSSGGGGSGGGGSGGGGSQSVLTQDPAVSVALGQTVKITCQGDSLRSYFASWYQQKPGQAPTLVMYARNDRPAGVPDRFSGSKSGTSASLAISGLQSEDEADYYCAAWDDSLNGYLFGAGTKLTVLTTTPAPRPPTPAPTIASQPLSLRPEACRPAAGGAVHTRGLDFACDIYIWAPLAGTCGVLLLSLVITLYCKRGRKKLLYIFKQPFMRPVQTTQEEDGCSCRFPEEEEGGCELRVKFSRSADAPAYKQGQNQLYNELNLGRREEYDVLDKRRGRDPEMGGKPRRKNPQEGLYNELQKDKMAEAYSEIGMKGERRRGKGHDGLYQGLSTATKDTYDALHMQALPPR | 264 | 264
P3-5BBZ CAR (other) DYKDDDDKEVQLVQSGAEVKKPGSSVKVSCKASGGTFSSYAISWVRQAPGQGLEWVGGIIPIFGTANYAQKFQGRVKITADESASTAYMELSSLRSEDTAVYYCAREEGPYCSSTSCYGAFDIWGQGTLVTVSSGGGGSGGGGSGGGGSQSVLTQDPAVSVALGQTVKITCQGDSLRSYLASWYQQKPGQAPTLVTYARNDRPAGVPDRFSGSKSGTSASLAISGLQSEDEADYYCAAWDDSLNGYLFGAGTKLTVLTTTPAPRPPTPAPTIASQPLSLRPEACRPAAGGAVHTRGLDFACDIYIWAPLAGTCGVLLLSLVITLYCKRGRKKLLYIFKQPFMRPVQTTQEEDGCSCRFPEEEEGGCELRVKFSRSADAPAYKQGQNQLYNELNLGRREEYDVLDKRRGRDPEMGGKPRRKNPQEGLYNELQKDKMAEAYSEIGMKGERRRGKGHDGLYQGLSTATKDTYDALHMQALPPR | 88.2 | 88.2
